Laboratory results taken from the RNAGym collection of RNA variant scans (doi:10.1021/acssynbio.7b00057).

B1: Pistol ribozyme (parent)
chain: GGGUCGUUGUUCCAUAAUCGCGUGGAUAUGGCACGCAAGUUUCUACCGGGCACCGUAAAUGUCCGACUGGAGCCGUUCGGGCGGCUAUAAACAGACCUCAGGCCCGAAGCGUGGCGGCACCUGCCGCCGGUGGUAAAAAAGAUCGGAAGAGCACACGUCU

Variants of: B1
Test: aptazyme ON/OFF ratio, guanine; higher = stronger switching; co-transcriptional cleavage with and without guanine

Variant	aptazyme ON/OFF ratio
GGGUCGGGUGAAGAUAAUCGCGUGGAUAUGGCACGCAAGUUUCUACCGGGCACCGUAAAUGUCCGACUGGAGCCGUUCGGGCGGCUAUAAACAGACCUCAGGCCCGAAGCGUGGCGGCACCUGCCGCCGGUGGUAAAAAAGAUCGGAAGAGCACACGUCU [U7G U8G G9U U10G U11A C12A C13G]	1.06
GGGUCGCCUGUCGAUAAUCGCGUGGAUAUGGCACGCAAGUUUCUACCGGGCACCGUAAAUGUCCGACUGGAGCCGUUCGGGCGGCUAUAAACAGACCUCAGGCCCGAAGCGUGGCGGCACCUGCCGCCGGUGGUAAAAAAGAUCGGAAGAGCACACGUCU [U7C U8C G9U U10G C13G]	1.12
GGGUCGACCGGGAAUAAUCGCGUGGAUAUGGCACGCAAGUUUCUACCGGGCACCGUAAAUGUCCGACUGGAGCCGUUCGGGCGGCUAUAAACAGACCUCAGGCCCGAAGCGUGGCGGCACCUGCCGCCGGUGGUAAAAAAGAUCGGAAGAGCACACGUCU [U7A U8C G9C U10G U11G C12G C13A]	1.08
GGGUCGAUCAAGUAUAAUCGCGUGGAUAUGGCACGCAAGUUUCUACCGGGCACCGUAAAUGUCCGACUGGAGCCGUUCGGGCGGCUAUAAACAGACCUCAGGCCCGAAGCGUGGCGGCACCUGCCGCCGGUGGUAAAAAAGAUCGGAAGAGCACACGUCU [U7A G9C U10A U11A C12G C13U]	1.1
GGGUCGCGAUGCCAUAAUCGCGUGGAUAUGGCACGCAAGUUUCUACCGGGCACCGUAAAUGUCCGACUGGAGCCGUUCGGGCGGCUAUAAACAGACCUCAGGCCCGAAGCGUGGCGGCACCUGCCGCCGGUGGUAAAAAAGAUCGGAAGAGCACACGUCU [U7C U8G G9A U11G]	1.18
GGGUCGCACGCACAUAAUCGCGUGGAUAUGGCACGCAAGUUUCUACCGGGCACCGUAAAUGUCCGACUGGAGCCGUUCGGGCGGCUAUAAACAGACCUCAGGCCCGAAGCGUGGCGGCACCUGCCGCCGGUGGUAAAAAAGAUCGGAAGAGCACACGUCU [U7C U8A G9C U10G U11C C12A]	1.29
GGGUCGACCUAUGAUAAUCGCGUGGAUAUGGCACGCAAGUUUCUACCGGGCACCGUAAAUGUCCGACUGGAGCCGUUCGGGCGGCUAUAAACAGACCUCAGGCCCGAAGCGUGGCGGCACCUGCCGCCGGUGGUAAAAAAGAUCGGAAGAGCACACGUCU [U7A U8C G9C U11A C12U C13G]	1.04
GGGUCGGACGUGAAUAAUCGCGUGGAUAUGGCACGCAAGUUUCUACCGGGCACCGUAAAUGUCCGACUGGAGCCGUUCGGGCGGCUAUAAACAGACCUCAGGCCCGAAGCGUGGCGGCACCUGCCGCCGGUGGUAAAAAAGAUCGGAAGAGCACACGUCU [U7G U8A G9C U10G C12G C13A]	1.06
GGGUCGUUCGCCUAUAAUCGCGUGGAUAUGGCACGCAAGUUUCUACCGGGCACCGUAAAUGUCCGACUGGAGCCGUUCGGGCGGCUAUAAACAGACCUCAGGCCCGAAGCGUGGCGGCACCUGCCGCCGGUGGUAAAAAAGAUCGGAAGAGCACACGUCU [G9C U10G U11C C13U]	1.06
GGGUCGUUUCUGCAUAAUCGCGUGGAUAUGGCACGCAAGUUUCUACCGGGCACCGUAAAUGUCCGACUGGAGCCGUUCGGGCGGCUAUAAACAGACCUCAGGCCCGAAGCGUGGCGGCACCUGCCGCCGGUGGUAAAAAAGAUCGGAAGAGCACACGUCU [G9U U10C C12G]	2.12
GGGUCGGUUAAGCAUAAUCGCGUGGAUAUGGCACGCAAGUUUCUACCGGGCACCGUAAAUGUCCGACUGGAGCCGUUCGGGCGGCUAUAAACAGACCUCAGGCCCGAAGCGUGGCGGCACCUGCCGCCGGUGGUAAAAAAGAUCGGAAGAGCACACGUCU [U7G G9U U10A U11A C12G]	1.41
GGGUCGAGAUCUGAUAAUCGCGUGGAUAUGGCACGCAAGUUUCUACCGGGCACCGUAAAUGUCCGACUGGAGCCGUUCGGGCGGCUAUAAACAGACCUCAGGCCCGAAGCGUGGCGGCACCUGCCGCCGGUGGUAAAAAAGAUCGGAAGAGCACACGUCU [U7A U8G G9A U11C C12U C13G]	0.973
GGGUCGCGCUACUAUAAUCGCGUGGAUAUGGCACGCAAGUUUCUACCGGGCACCGUAAAUGUCCGACUGGAGCCGUUCGGGCGGCUAUAAACAGACCUCAGGCCCGAAGCGUGGCGGCACCUGCCGCCGGUGGUAAAAAAGAUCGGAAGAGCACACGUCU [U7C U8G G9C U11A C13U]	1.26
GGGUCGGAGCCGGAUAAUCGCGUGGAUAUGGCACGCAAGUUUCUACCGGGCACCGUAAAUGUCCGACUGGAGCCGUUCGGGCGGCUAUAAACAGACCUCAGGCCCGAAGCGUGGCGGCACCUGCCGCCGGUGGUAAAAAAGAUCGGAAGAGCACACGUCU [U7G U8A U10C U11C C12G C13G]	1.06
GGGUCGAUAAUGGAUAAUCGCGUGGAUAUGGCACGCAAGUUUCUACCGGGCACCGUAAAUGUCCGACUGGAGCCGUUCGGGCGGCUAUAAACAGACCUCAGGCCCGAAGCGUGGCGGCACCUGCCGCCGGUGGUAAAAAAGAUCGGAAGAGCACACGUCU [U7A G9A U10A C12G C13G]	1.3
GGGUCGUCACAAGAUAAUCGCGUGGAUAUGGCACGCAAGUUUCUACCGGGCACCGUAAAUGUCCGACUGGAGCCGUUCGGGCGGCUAUAAACAGACCUCAGGCCCGAAGCGUGGCGGCACCUGCCGCCGGUGGUAAAAAAGAUCGGAAGAGCACACGUCU [U8C G9A U10C U11A C12A C13G]	1.27
GGGUCGCGGUUGCAUAAUCGCGUGGAUAUGGCACGCAAGUUUCUACCGGGCACCGUAAAUGUCCGACUGGAGCCGUUCGGGCGGCUAUAAACAGACCUCAGGCCCGAAGCGUGGCGGCACCUGCCGCCGGUGGUAAAAAAGAUCGGAAGAGCACACGUCU [U7C U8G C12G]	1.29
GGGUCGUGGACAGAUAAUCGCGUGGAUAUGGCACGCAAGUUUCUACCGGGCACCGUAAAUGUCCGACUGGAGCCGUUCGGGCGGCUAUAAACAGACCUCAGGCCCGAAGCGUGGCGGCACCUGCCGCCGGUGGUAAAAAAGAUCGGAAGAGCACACGUCU [U8G U10A U11C C12A C13G]	1.12
